{"source": "patent US20140045930A1", "about": "“ASSAY FOR ARGINYL HYDROXYLASE ACTIVITY” (priority 2011, published 2014)", "target": "His-tagged L16 protein (recombinant, produced in YcfD knock out strain JW1114) (E. coli) (UniProt A7ZSK2)", "experiment": "cell-based or functional assay", "data": [{"substance": "YcfD ectopically expressed in the deletion strain JW1114 (co-expressed with L16 from pETDuet-1) (from UniProt P27431 1-373) (enzyme)", "values": [{"measurement": "hydroxylation of R-81 in L16 in vivo (MS); unmodified peptide detected (% unmodified peptide)", "value": "< 1"}]}]}
